Our source for the Km values is PMC12329526, “Molecular arrangements that accompany binding of rice xylanase inhibitor protein OsXIP and the Rhizopus oryzae GH11 xylanase RXyn2” (The Journal of Biological Chemistry, 2025).

The subject of this series is T1, O=[N+]([O-])c1ccc(O[C@@H]2OC[C@@H](O[C@@H]3OC[C@@H](O)[C@H](O)[C@H]3O)[C@H](O)[C@H]2O)cc1.
T1 construct: mature form Leu20-Ser216 (197 residues), signal peptide removed, N-terminal His6 tag (pRham N-His), E. coli 10G, synthetic codon-optimised gene, monomer, 22,340 Da
The experiment in a line: purified protein. In kind it is biochemical, Rhizopus arrhizus. As to conditions: 20 mM sodium acetate, pH 5.0, 37 °C, free enzyme without OsXIP.

Chain of RXyn2 (Rhizopus arrhizus) (chain, as listed by the source): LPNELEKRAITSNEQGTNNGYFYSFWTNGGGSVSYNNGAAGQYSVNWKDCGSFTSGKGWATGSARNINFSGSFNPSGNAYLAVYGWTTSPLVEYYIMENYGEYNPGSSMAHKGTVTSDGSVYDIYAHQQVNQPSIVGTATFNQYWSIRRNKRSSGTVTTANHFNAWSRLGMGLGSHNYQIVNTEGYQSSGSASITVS

Broadly, the Km is the substrate concentration at which the rate is half of its maximum. RXyn2 (Rhizopus arrhizus): the Km stood at 5.05 ± 0.29 mM.
